Our source for the Kd values is US20200181259A1.

The target in this assay is mouse CD47-Fc (mouse) (UniProt Q61735). In words: bio-light interferometry (ForteBio), antibody on AHQ tip, mouse CD47-Fc 100 nM in solution, bivalent. Background: Biolayer interferometry detects binding as a change in optical thickness at a sensor tip.
mouse CD47-Fc (mouse), sequence (Q61735 19-140 limits assumed): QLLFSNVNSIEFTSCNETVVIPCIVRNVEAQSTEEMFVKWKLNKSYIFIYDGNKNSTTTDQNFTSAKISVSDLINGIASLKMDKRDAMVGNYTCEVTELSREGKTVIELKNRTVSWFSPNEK

Hu5F9, control anti-CD47 antibody transiently expressed in 293 HEK cells, sequence (VH): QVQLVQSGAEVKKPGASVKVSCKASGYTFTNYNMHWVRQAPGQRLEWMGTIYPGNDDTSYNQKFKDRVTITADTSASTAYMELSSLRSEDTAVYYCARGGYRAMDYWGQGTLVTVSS
Hu5F9, control anti-CD47 antibody transiently expressed in 293 HEK cells, sequence (VL): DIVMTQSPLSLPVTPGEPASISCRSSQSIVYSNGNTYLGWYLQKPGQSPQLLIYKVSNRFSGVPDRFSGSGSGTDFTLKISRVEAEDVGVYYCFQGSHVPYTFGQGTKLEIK

As to “Hu5F9, control anti-CD47 antibody transiently expressed in 293 HEK cells”, the Kd was 12.7 nM.
